The values that follow come from patent US20020119139A1, “Cloning and recombinant expression of mammalian group XII secreted phospholipase A2” (priority 2000, published 2002).

Data set [1] is described as follows: sPLA2 activity secreted into culture medium of transiently transfected HEK293 cells. The class given is cell-based. To be noted: 1-5 days after transfection. From the text:
(§1) A mammalian expression vector containing the full-length hGXII cDNA was first used to transiently transfected HEK293 cells. […] Mass spectrometry analysis gave an experimental mass of 18,702.6±0.5 Da, which agrees well with the mass of 18,702.1 Da calculated from the sequence of mature hGXII shown in FIG. 1A.

Data set [2] is described as follows: Ca2+ dependency of the initial velocity of hydrolysis of POPC vesicles. The class given is biochemical. To be noted: POPC vesicles with 1-palmitoyl-2-[8,9-3H]palmitoyl-sn-glycero-3-phosphocholine. The procedure: (§2) FIG. 3 represents the enzymatic properties of hGXII. […] Additional assay details have been reported elsewhere (18).
(§3) Large unilamellar vesicles (0.1 μm) of POPC, POPG, and POPS (31) were used to measure the initial rates of hydrolysis by hGXII in Hank's balanced salt solution with 1.2 mM CaCl2 and 0.9 mM MgCl2 using the fatty acid binding protein assay (17). The pH-rate profile and Ca^2+ dependency for the action of hGXII on POPG and POPC vesicles, respectively, were obtained as described (17).

Data set [3] can be described thus: sPLA2 activity assay using radiolabeled E. coli membranes. The class given is biochemical. To be noted: recombinant protein from E. coli; also active on POPG, POPS and POPC vesicles.
Description: as §1
The decrease as the pH is lowered presumably reflects, in part, the protonation of the active site histidine. As for all mammalian sPLA2s examined so far, the enzymatic activity of hGXII on phosphatidylglycerol vesicles is highest (FIG. 3C), which probably reflects the tighter binding of hGXII to anionic vesicles (37). Although hGXII hydrolyzes POPC at only ˜7% of the rate of POPG, this difference is small compared to the greater than 10^5-fold preference of hGIIA for POPG versus POPC (18).

The nature of data set [4]: Initial rates of hydrolysis of large unilamellar vesicles, fatty acid binding protein assay. The class given is biochemical. The procedure:
as §2, §3

A short description of data set [5]: pH-rate profile of hydrolysis of POPG vesicles. The class given is biochemical. The procedure: as §2, §3
For data set [6] the following is noted: from reference (18); cited from earlier work.

B1: hGXII: novel human secreted phospholipase A2 of group XII, mature protein of 167 amino acids (SEQ ID No 2), produced in E. coli (protein)
chain: MALLSRPALTLLLLLMAAVVRCQEQAQTTDWRATLKTIRNGVHKIDTYLNAALDLLGGEDGLCQYKCSDGSKPFPRYGYKPSPPNGCGSPLFGVHLNIGIPSLTKCCNQHDRCYETCGKSKNDCDEEFQYCLSKICRDVQKTLGLTQHVQACETTVELLFDSVIHLGCKPYLDSQRAACRCHYEEKTDL
In the case of B1, in data set [1], the “sPLA2 activity secreted into the culture medium versus cells transfected with vector lacking the insert” value was “barely above”. Besides, the “Kca (Ca2+ dependence of sPLA2 activity toward POPC vesicles)” value in data set [2] amounted to 30 ± 10 µM. The sPLA2 catalytic activity result in data set [3] is “catalytically active”. The POPS as substrate entry in data set [4] (POPS vesicles) is reported as “good substrate”. In data set [4] (compared to hGIB, hGIIA, hGV, hGX, comparable to mGIIE), the “specific enzymatic activity compared to other mammalian sPLA2s” value is “low”. Also, the “enzymatic activity on phosphatidylglycerol vesicles” value in data set [4] (compared with POPC and POPS vesicles) is given as “highest”. The “rate of POPC hydrolysis as % of the rate of POPG” value in data set [4] (large unilamellar vesicles (0.1 μm), Hank's balanced salt solution, 1.2 mM CaCl2, 0.9 mM MgCl2) was approximately 7%. In data set [5], the “pH of maximal activity” value is approximately 8.0.

B2: hGIIA: human group IIA secreted phospholipase A2, used as literature comparator (protein, UniProt P14555 21-144, looked up)
Phospholipase A2, membrane …: NLVNFHRMIKLTTGKEAALSYGFYGCHCGVGGRGSPKDATDRCCVTHDCCYKRLEKRGCGTKFLSYKFSNSGSRITCAKQDSCRSQLCECDKAAATCFARNKTTYNKKYQYYSNKHCRGSTPRC
Take B2: the “preference for POPG versus POPC” value in data set [6] was “greater than 10^5 fold”.
